Results from patent US20250041389A1, “ENHANCING ABSORPTION OF DIETARY COMPOUNDS TO PROMOTE HEALTH” (ARIZONA BOARD OF REGENTS ON BEHALF OF THE UNIVERSITY OF …, priority 2023, published 2025).

Legend:
[1] = Oral gavage of GUSB followed by curcumin in mice; assay of curcumin metabolites in serum and bone; assay type: in vivo, C57BI6 mice; conditions: after oral administration of GUSB with curcumin; FIG. 1
Text: Experimental Methods: Administer 140 U/g body weight of GUSB (E. coli-derived [Sigma G840]) orally via gavage (vs vehicle) to 10-week-old male C57BI6 mice.

[2] = Enzymatic activity of orally administered enzyme after passage through proteolytic sections of the GI tract; assay type: in vivo; conditions: oral administration

B1: GUSB: Beta-glucuronidase enzyme; E. coli-derived [Sigma G840] in Example 1 (protein, UniProt P05804 1-603, looked up)
Beta-glucuronidase: MLRPVETPTREIKKLDGLWAFSLDRENCGIDQRWWESALQESRAIAVPGSFNDQFADADIRNYAGNVWYQREVFIPKGWAGQRIVLRFDAVTHYGKVWVNNQEVMEHQGGYTPFEADVTPYVIAGKSVRITVCVNNELNWQTIPPGMVITDENGKKKQSYFHDFFNYAGIHRSVMLYTTPNTWVDDITVVTHVAQDCNHASVDWQVVANGDVSVELRDADQQVVATGQGTSGTLQVVNPHLWQPGEGYLYELCVTAKSQTECDIYPLRVGIRSVAVKGEQFLINHKPFYFTGFGRHEDADLRGKGFDNVLMVHDHALMDWIGANSYRTSHYPYAEEMLDWADEHGIVVIDETAAVGFNLSLGIGFEAGNKPKELYSEEAVNGETQQAHLQAIKELIARDKNHPSVVMWSIANEPDTRPQGAREYFAPLAEATRKLDPTRPITCVNVMFCDAHTDTISDLFDVLCLNRYYGWYVQSGDLETAEKVLEKELLAWQEKLHQPIIITEYGVDTLAGLHSMYTDMWSEEYQCAWLDMYHRVFDRVSAVVGEQVWNFADFATSQGILRVGGNKKGIFTRDRKPKSAAFLLQKRWTGMNFGEKPQQGGKQ
- enzyme levels in the body [1]: unchanged
- enzymatic activity after passing through the proteolytic sections of the GI tract (stomach and duodenum) [2]: retain their enzymatic activity
